{"source": "patent US20220000984A1", "about": "(JIANGSU GENSCIENCES, published 2022)", "binders": {"B1": {"name": "GLP1-L1-Fc2-L2-ST (Fc fusion)", "chain": "HGEGTFTSDVSSYLEEQAAKEFIAWLVKGGGGGGGSGGGGSGGGGSAVECPPCPAPPVAGPSVFLFPPKPKDTLMISRTPEVTCVVVDVSHEDPEVQFNWYVDGVEVHNAKTKPREEQFNSTFRVVSVLTVVHQDWLNGKEYKCKVSNKGLPAPIEKTISKTKGQPREPQVYTLPPSREEMTKNQVSLTCLVKGFYPSDIAVEWESNGQPENNYKTTPPMLDSDGSFFLYSKLTVDKSRWQQGNVFSCSVMHEALHNHYTQKSLSLSPGGSGGGSGGGGSGGGGSLPETG"}, "B2": {"name": "GLP1-L1-Fc2-L2-ST crosslinked with 20 kDa PEG (Fc fusion)", "chain": "HGEGTFTSDVSSYLEEQAAKEFIAWLVKGGGGGGGSGGGGSGGGGSAVECPPCPAPPVAGPSVFLFPPKPKDTLMISRTPEVTCVVVDVSHEDPEVQFNWYVDGVEVHNAKTKPREEQFNSTFRVVSVLTVVHQDWLNGKEYKCKVSNKGLPAPIEKTISKTKGQPREPQVYTLPPSREEMTKNQVSLTCLVKGFYPSDIAVEWESNGQPENNYKTTPPMLDSDGSFFLYSKLTVDKSRWQQGNVFSCSVMHEALHNHYTQKSLSLSPGGSGGGSGGGGSGGGGSLPETGGGAA", "modifications": "20 kDa PEG on the added C-terminal GGGAA (GGGAA-PEG joined by sortase A to the T of LPET)"}, "B3": {"name": "GLP1-L1-Fc2-L2-ST crosslinked with 40 kDa PEG (Fc fusion)", "chain": "B2 chain", "modifications": "40 kDa PEG on the added C-terminal GGGAA (GGGAA-PEG joined by sortase A to the T of LPET)"}}, "data": [{"target": "GLP-1 receptor (GLP-1R) on HEK293/CRE-Luc/GLP1R cells (UniProt P43220 24-463, limits assumed)", "experiment": "cell-based or functional assay", "units": {"relative activity compared with dulaglutide (CRE-luciferase reporter, HEK293/CRE-Luc/GLP1R cells)": "%"}, "values": [{"binder": "B1", "relative activity compared with dulaglutide (CRE-luciferase reporter, HEK293/CRE-Luc/GLP1R cells)": 98.1}, {"binder": "B2", "relative activity compared with dulaglutide (CRE-luciferase reporter, HEK293/CRE-Luc/GLP1R cells)": 40.4}, {"binder": "B3", "relative activity compared with dulaglutide (CRE-luciferase reporter, HEK293/CRE-Luc/GLP1R cells)": 32.9}]}]}
